According to publication doi:10.1101/2020.03.02.974154 (bioRxiv, 2020):

Target: the molecule itself
Assay: cryo-EM structure

B1: full-length chicken acid-sensing ion channel 1a (cASIC1a) (natural protein, Gallus gallus, UniProt Q1XA76 1-527, looked up)
chain: MMDLKVDEEEVDSGQPVSIQAFASSSTLHGISHIFSYERLSLKRVVWALCFMGSLALLALVCTNRIQYYFLYPHVTKLDEVAATRLTFPAVTFCNLNEFRFSRVTKNDLYHAGELLALLNNRYEIPDTQTADEKQLEILQDKANFRNFKPKPFNMLEFYDRAGHDIREMLLSCFFRGEQCSPEDFKVVFTRYGKCYTFNAGQDGKPRLITMKGGTGNGLEIMLDIQQDEYLPVWGETDETSFEAGIKVQIHSQDEPPLIDQLGFGVAPGFQTFVSCQEQRLIYLPPPWGDCKATTGDSEFYDTYSITACRIDCETRYLVENCNCRMVHMPGDAPYCTPEQYKECADPALDFLVEKDNEYCVCEMPCNVTRYGKELSMVKIPSKASAKYLAKKYNKSEQYIGENILVLDIFFEALNYETIEQKKAYEVAGLLGDIGGQMGLFIGASILTVLELFDYAYEVIKHRLCRRGKCRKNHKRNNTDKGVALSMDDVKRHNPCESLRGHPAGMTYAANILPHHPARGTFEDFTC
stoichiometry N: 3
